Experimental data taken from publication PMC8429438, “DnaJC7 binds natively folded structural elements in tau to inhibit amyloid formation” (Nature Communications, 2021).
Where “and” joins values, the source holds several entries; their conditions need not be identical. Equal values may be shown once.

Assays:
[1] = target: T1, full-length 2N4R P301L tau (human, UniProt P10636-8 1-441, P301L, Cy5 (Cyanine5 NHS ester) label in the MST assays; unlabelled in cross-linking and aggregation assays); experiment: MST; WT tau or P301L tau labelled with Cyanine5 NHS ester dye (Cy5) and titrated by a serial two-fold dilution of DnaJC7 domains; n=3; Nanotemper Monolith NT.115; 1:1 binding model; conditions: both partners purified
T1 construct: microtubule-associated protein tau, 2N4R isoform, with the frontotemporal dementia disease-associated P301L mutation; source: E. coli BL21 (DE3), pET28b, purified
T1 sequence (P10636 other isoform, or with tags, fused parts or gaps P301L | P301L | P301L P301L): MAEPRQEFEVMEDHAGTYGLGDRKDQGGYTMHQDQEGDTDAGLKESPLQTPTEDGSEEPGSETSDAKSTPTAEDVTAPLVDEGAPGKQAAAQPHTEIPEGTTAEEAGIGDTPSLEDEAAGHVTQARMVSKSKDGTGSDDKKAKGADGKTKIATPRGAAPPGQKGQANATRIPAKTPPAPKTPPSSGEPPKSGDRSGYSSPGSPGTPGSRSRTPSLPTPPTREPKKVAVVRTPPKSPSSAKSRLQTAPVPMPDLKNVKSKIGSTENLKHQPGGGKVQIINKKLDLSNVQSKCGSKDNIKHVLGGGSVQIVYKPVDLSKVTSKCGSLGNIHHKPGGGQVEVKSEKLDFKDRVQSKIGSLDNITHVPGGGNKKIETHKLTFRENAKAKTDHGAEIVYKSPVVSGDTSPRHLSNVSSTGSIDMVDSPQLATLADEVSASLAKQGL

[2] = target: T2, full-length 2N4R wild-type tau (human, UniProt P10636-8 1-441, Cy5 (Cyanine5 NHS ester) label in MST); experiment: MST; Cy5-labelled wild-type or mutant tau/tauRD titrated with a serial two-fold dilution of DnaJC7 or single DnaJC7 domains; Monolith NT.115; technical triplicates; fit in PALMIST with a 1:1 binding model; conditions: both partners purified
T2 construct: microtubule-associated protein tau, 2N4R isoform, full length; also called WT tau; full-length tau; source: E. coli BL21 (DE3), pET28b, purified
T2 sequence (P10636 other isoform, or with tags, fused parts or gaps): as the sequence (P10636 other isoform, or with tags, fused parts or gaps P301L | P301L | P301L P301L) above, with L301P counted along it

[3] = target: T3, full-length 2N4R P301L tau (human, UniProt P10636-8 1-441, P301L, Cy5 (Cyanine5 NHS ester) label in MST); experiment: as above; conditions: both partners purified
T3 construct: microtubule-associated protein tau, 2N4R isoform, full length, with the disease-associated P301L mutation; also called full-length P301L tau mutant; source: E. coli BL21 (DE3), pET28b, purified
T3 sequence (P10636 other isoform, or with tags, fused parts or gaps P301L | P301L | P301L P301L): as the sequence (P10636 other isoform, or with tags, fused parts or gaps P301L | P301L | P301L P301L) above

[4] = target: T2, full-length 2N4R wild-type tau; experiment: cell-based or functional assay
[5] = target: T4, recombinant tau monomer seed (human, UniProt P10636-8 1-441, Cy5 (Cyanine5 NHS ester) label in MST); experiment: MST; Cy5-labelled wild-type or mutant tau/tauRD titrated with a serial two-fold dilution of DnaJC7 or single DnaJC7 domains; Monolith NT.115; technical triplicates; fit in PALMIST with a 1:1 binding model; conditions: both partners purified
T4 construct: Probably made from the full-length 2N4R tau of m5; the methods say only 'wild-type tau'; also called tau monomer seeds; tau seeds; source: wild-type tau from E. coli BL21 (DE3) incubated 1:1 with heparin for 1 h at 37 °C, isolated on Superdex 200
T4 sequence (P10636 other isoform, or with tags, fused parts or gaps): as the sequence (P10636 other isoform, or with tags, fused parts or gaps P301L | P301L | P301L P301L) above, with L301P counted along it

[6] = target: T5, full-length 2N4R wild-type tau (human, UniProt P10636-8 1-441, Cy5 (Cyanine5 NHS ester) label in the MST assays; unlabelled in cross-linking and aggregation assays); experiment: MST; WT tau or P301L tau labelled with Cyanine5 NHS ester dye (Cy5) and titrated by a serial two-fold dilution of DnaJC7 domains; n=3; Nanotemper Monolith NT.115; 1:1 binding model; conditions: both partners purified
T5 construct: microtubule-associated protein tau, 2N4R isoform; also called WT tau; WT TAU; source: E. coli BL21 (DE3), pET28b, purified
T5 sequence (P10636 other isoform, or with tags, fused parts or gaps): as the sequence (P10636 other isoform, or with tags, fused parts or gaps P301L | P301L | P301L P301L) above, with L301P counted along it

Row | Binder | Kd [1] [nM] | Kd [2] | fold increase in binding affinity relative to full-length DnaJC7 [3] [fold] | also measured
1 | DnaJC7 TPR1 domain (20-156) (domain or fragment, UniProt Q99615 20-156, looked up, DnaJC7, TPR1 domain, residues 20-156; also called TPR1_(20-156); not shown: His tag (from the vector pMCSG7)) DDQEAKREAETFKEQGNAYYAKKDYNEAYNYYTKAIDMCPKNASYYGNRAATLMMLGRFREALGDAQQSVRLDDSFVRGHLREGKCHLSLGNAMAACRSFQRALELDHKNAQAQQEFKNANAVMEYEKIAETDFEKR | 404 | – | – | –
2 | DnaJC7 TPR1 domain (TPR1 20-156) (domain or fragment, UniProt Q99615 20-156, looked up, DnaJC7 residues 20-156, TPR1 domain) DDQEAKREAETFKEQGNAYYAKKDYNEAYNYYTKAIDMCPKNASYYGNRAATLMMLGRFREALGDAQQSVRLDDSFVRGHLREGKCHLSLGNAMAACRSFQRALELDHKNAQAQQEFKNANAVMEYEKIAETDFEKR | – | 84 nM | > 12 | –
3 | DnaJC7 (full-length, wild type, recombinant) (natural protein, UniProt Q99615 1-494, looked up, DnaJC7, class-C J-domain protein with TPR1, TPR2a, TPR2b and a C-terminal J domain; called full-length DnaJC7; Plasmid was a gift (A. Joachimiak); also called DnaJC7WT; WT DnaJC7) MAAAAECDVVMAATEPELLDDQEAKREAETFKEQGNAYYAKKDYNEAYNYYTKAIDMCPKNASYYGNRAATLMMLGRFREALGDAQQSVRLDDSFVRGHLREGKCHLSLGNAMAACRSFQRALELDHKNAQAQQEFKNANAVMEYEKIAETDFEKRDFRKVVFCMDRALEFAPACHRFKILKAECLAMLGRYPEAQSVASDILRMDSTNADALYVRGLCLYYEDCIEKAVQFFVQALRMAPDHEKACIACRNAKALKAKKEDGNKAFKEGNYKLAYELYTEALGIDPNNIKTNAKLYCNRGTVNSKLRKLDDAIEDCTNAVKLDDTYIKAYLRRAQCYMDTEQYEEAVRDYEKVYQTEKTKEHKQLLKNAQLELKKSKRKDYYKILGVDKNASEDEIKKAYRKRALMHHPDRHSGASAEVQKEEEKKFKEVGEAFTILSDPKKKTRYDSGQDLDEEGMNMGDFDPNNIFKAFFGGPGGFSFEASGPGNFFFQFG | – | 471 nM and 343 nM | – | ThT fluorescence of 4.4 µM WT tau seeded with 50 nM tau monomer seeds with equimolar DnaJC7WT over 100 h, relative to the seeded tau control [4]: 20%; Kd [5]: 15500 ± 2200 nM
4 | DnaJC7 J domain (JD 380-494) (domain or fragment, UniProt Q99615 380-494, looked up, DnaJC7 residues 380-494, C-terminal J domain; also called J domain_(380-494)) KDYYKILGVDKNASEDEIKKAYRKRALMHHPDRHSGASAEVQKEEEKKFKEVGEAFTILSDPKKKTRYDSGQDLDEEGMNMGDFDPNNIFKAFFGGPGGFSFEASGPGNFFFQFG | – | 8200 nM | – | Kd [3]: 28200 nM
5 | DnaJC7 TPR2a domain (141-270) (domain or fragment, UniProt Q99615 141-270, looked up, DnaJC7, TPR2a domain, residues 141-270; also called TPR2a_(141-270); not shown: His tag (from the vector pMCSG7)) AVMEYEKIAETDFEKRDFRKVVFCMDRALEFAPACHRFKILKAECLAMLGRYPEAQSVASDILRMDSTNADALYVRGLCLYYEDCIEKAVQFFVQALRMAPDHEKACIACRNAKALKAKKEDGNKAFKEG | 670 | – | – | Kd [6]: 202 nM
6 | DnaJC7 TPR2a domain (TPR2a 141-270) (domain or fragment, UniProt Q99615 141-270, looked up, DnaJC7 residues 141-270, TPR2a domain) AVMEYEKIAETDFEKRDFRKVVFCMDRALEFAPACHRFKILKAECLAMLGRYPEAQSVASDILRMDSTNADALYVRGLCLYYEDCIEKAVQFFVQALRMAPDHEKACIACRNAKALKAKKEDGNKAFKEG | – | – | > 12 | fold tighter binding than full-length DnaJC7 [2]: > 2 fold

More lines, main results first:

Row | Kd [1] [nM] | Kd [2] | fold increase in binding affinity relative to full-length DnaJC7 [3] [fold] | Binder | also measured
7 | – | 6000 ± 1200 nM | – | DnaJC7_(TPR2b_mut) (full-length DnaJC7 with six alanine mutations in the TPR2b binding groove) (natural protein, UniProt Q99615 1-494, looked up, also called DnaJC7_(TPR2_mut); source: recombinant from pET29b (NdeI/XhoI)) MAAAAECDVVMAATEPELLDDQEAKREAETFKEQGNAYYAKKDYNEAYNYYTKAIDMCPKNASYYGNRAATLMMLGRFREALGDAQQSVRLDDSFVRGHLREGKCHLSLGNAMAACRSFQRALELDHKNAQAQQEFKNANAVMEYEKIAETDFEKRDFRKVVFCMDRALEFAPACHRFKILKAECLAMLGRYPEAQSVASDILRMDSTNADALYVRGLCLYYEDCIEKAVQFFVQALRMAPDHEKACIACRNAKALKAKAEDGAKAAAAGNAKLAYELYTEALGIDPNNIKTNAKLYCNRGTVNSKLRKLDDAIEDCTNAVKLDDTYIKAYLRRAQCYMDTEQYEEAVRDYEKVYQTEKTKEHKQLLKNAQLELKKSKRKDYYKILGVDKNASEDEIKKAYRKRALMHHPDRHSGASAEVQKEEEKKFKEVGEAFTILSDPKKKTRYDSGQDLDEEGMNMGDFDPNNIFKAFFGGPGGFSFEASGPGNFFFQFG | –
8 | 507 | – | – | DnaJC7 TPR2b domain (255-370) (domain or fragment, UniProt Q99615 255-370, looked up, also called TPR2b_(255-370); TPR2b_(253-370); not shown: His tag (from the vector pMCSG7)) ALKAKKEDGNKAFKEGNYKLAYELYTEALGIDPNNIKTNAKLYCNRGTVNSKLRKLDDAIEDCTNAVKLDDTYIKAYLRRAQCYMDTEQYEEAVRDYEKVYQTEKTKEHKQLLKNA | –
9 | – | 75 nM | > 12 | DnaJC7 TPR2b domain (TPR2b 255-370) (domain or fragment, UniProt Q99615 255-370, looked up, also called TPR2b_(253-370)) ALKAKKEDGNKAFKEGNYKLAYELYTEALGIDPNNIKTNAKLYCNRGTVNSKLRKLDDAIEDCTNAVKLDDTYIKAYLRRAQCYMDTEQYEEAVRDYEKVYQTEKTKEHKQLLKNA | –
